Data reported in PMC8095197 (bioRxiv, 2021).

Biological target: SARS-CoV-2 RBD (SARS-CoV-2, reference (Wuhan-Hu-1) …, UniProt P0DTC2)
Test: ELISA

B1: DH1047 IgG (antibody, V domains shown)
VH: QVQLVQSGAEVKKPGASVQVSCQASANTFTNHYIHWVRQAPGQGLEWMGIIYPTGGNTIYAQGFQGRVTMTRDTSLNTIYLELSSLRSEDTAVYYCARDVRVDDSWSGYDLLSGGTYFDYWGQGTLVTVSS
VL: not shown
- binding result: binds
